Reference: PMC10461807 (Frontiers in Immunology, 2023)

Assays:
recombinant huCD30 (R&D) = molecular target: T1, recombinant huCD30 (R&D) (Homo sapiens, UniProt P28908); experiment: SPR; BIAcore 3000, 25°C; recombinant huCD30 amine-coupled on a CM5 chip; mAbs as analyte in serial 1:2 dilutions from 20 nM; 10 mM Hepes pH 7.4, 150 mM NaCl, 0.005% P20, 0.1% BSA; 1:1 Langmuir fit; settings: both partners purified
T1 construct: recombinant human CD30 from R&D; also called rhCD30; huCD30 protein; source: bought: R&D

Recombinant huCD30 = molecular target: T2, Recombinant huCD30 (Homo sapiens, UniProt P28908); experiment: SPR; mAbs (5 ng/ul) immobilized on a Protein G sensor chip at about 200 RU; rhCD30 as analyte (0-2500 nM for the 8D10 and 10C2 flow cells), 2 min at 40 ul/min, 3 min dissociation; 25°C; 10 mM Hepes pH 7.4, 150 mM NaCl, 0.005% P20; BIAcore 3000; 1:1 Langmuir fit; settings: both partners purified
T2 construct: human CD30 (TNFRSF8), recombinant protein from R&D; also called rhCD30; huCD30 protein; source: bought: R&D
T2 sequence (P28908 19-385): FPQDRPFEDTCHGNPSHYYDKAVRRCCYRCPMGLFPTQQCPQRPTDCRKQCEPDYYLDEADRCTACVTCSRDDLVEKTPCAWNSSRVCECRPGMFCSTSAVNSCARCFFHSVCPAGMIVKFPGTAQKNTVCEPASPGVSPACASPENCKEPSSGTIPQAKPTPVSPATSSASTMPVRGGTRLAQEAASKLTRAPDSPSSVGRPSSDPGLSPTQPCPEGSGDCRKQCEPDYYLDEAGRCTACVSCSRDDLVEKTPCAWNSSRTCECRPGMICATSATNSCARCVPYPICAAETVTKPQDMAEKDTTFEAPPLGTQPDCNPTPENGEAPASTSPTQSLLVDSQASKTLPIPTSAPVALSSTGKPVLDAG

T1 sequence (P28908 19-385): as above

Ka (recombinant huCD30 (R&D)) [M⁻¹] | Kd (recombinant huCD30 (R&D)) [nM] | koff (recombinant huCD30 (R&D)) [s⁻¹] | kon (recombinant huCD30 (R&D)) [M⁻¹ s⁻¹] | Ka (Recombinant huCD30) [M⁻¹] | Kd (Recombinant huCD30) [nM] | koff (Recombinant huCD30) [s⁻¹] | kon (Recombinant huCD30) [M⁻¹ s⁻¹] | Binder
1.65e+09 | 0.607 | 0.000186 | 307000 |  |  |  |  | anti-CD30 mAb 10C2 (antibody, V domains shown, also called clone 10C2; source: mouse hybridoma (custom generated by Genscript), serum-free supernatant, purified (rProtein A GraviTrap)) VH: QVQLEQSGPVLVKPGASVKMSCKASGYTFTDYYMNWVKQSHGKSLEWIGVINPYNGGTSYNQKFKGKATLTVDKSSSTACMELNCLTSEDSAVYYCTLGAYWGQGTSVTVSS VL: not shown
 |  |  |  | 579000 | 1760 | 0.0101 | 5880 | anti-CD30 mAb 10C2 (antibody, V domains shown, IgG2a constant part; kappa light chain; source: mouse hybridoma supernatant (serum-free medium), purified on rProtein A GraviTrap column) VH: QVQLEQSGPVLVKPGASVKMSCKASGYTFTDYYMNWVKQSHGKSLEWIGVINPYNGGTSYNQKFKGKATLTVDKSSSTACMELNCLTSEDSAVYYCTLGAYWGQGTSVTVSS VL: not shown
1.69e+10 | 0.0592 | 6e-06 | 101000 |  |  |  |  | anti-CD30 mAb 8D10 (antibody, V domains shown, also called clone 8D10; source: mouse hybridoma (custom generated by Genscript), serum-free supernatant, purified (rProtein A GraviTrap)) VH: QVQLQESGTELVKPGASVKLSCKASGYTFTSYWMHWMKQRPGQGLEWIGNINPSNGGTNYNEKFKNKATLTVDKSSSTAYMQLSSLTSEDSAVYYCARRDYYYGSSYGFDVWGTGTTVTVSS VL: DIVMTQSPASQSASLGESVTITCLASQTIGTWLAWYQQKPGKSPQFLIYAATSLADGVPSRFSGSGSGTKFSFKISSLQAEDFVSYYCQQLYSTPFTFGGGTKLEIK
 |  |  |  | 878000 | 1140 | 0.00523 | 4530 | anti-CD30 mAb 8D10 (antibody, V domains shown, IgG2a constant part; kappa light chain; source: mouse hybridoma supernatant (serum-free medium), purified on rProtein A GraviTrap column) VH: QVQLQESGTELVKPGASVKLSCKASGYTFTSYWMHWMKQRPGQGLEWIGNINPSNGGTNYNEKFKNKATLTVDKSSSTAYMQLSSLTSEDSAVYYCARRDYYYGSSYGFDVWGTGTTVTVSS VL: DIVMTQSPASQSASLGESVTITCLASQTIGTWLAWYQQKPGKSPQFLIYAATSLADGVPSRFSGSGSGTKFSFKISSLQAEDFVSYYCQQLYSTPFTFGGGTKLEIK
5.02e+09 | 0.199 | 1.22e-05 | 61300 |  |  |  |  | anti-CD30 mAb 12B1 (antibody, V domains shown, also called clone 12B1; source: mouse hybridoma (custom generated by Genscript), serum-free supernatant, purified (rProtein A GraviTrap)) VH: EVKLEESGTELVKPGASVKLSCKASGYTFTSYWMHWVKQRPGQGLEWIGNINPTNGGTNYNEKFKSKATLTVDKSSRTAYMQLSSLTSGDSAVYYCARRDFITTSGFAYWGQGTLVTVSA VL: DIVMTQTTASLSTSVGETVTITCRASGNLHSYLTWYQQKQGKSPQLLVYNAKTLADGVPSRFSGSGSGTQYSLKIDSLQPEDFGSYYCQHFWTTPFTFGSGTKLEIK
1.02e+09 | 0.978 | 0.000493 | 504000 |  |  |  |  | anti-CD30 mAb 15B8 (antibody, V domains shown, also called clone 15B8; source: mouse hybridoma (custom generated by Genscript), serum-free supernatant, purified (rProtein A GraviTrap)) VH: QVQLEQSGTELVKPGASVKLSCKASGYTFTSYWMHWVKQRPGQGLEWIGNINPSNGGTNYNEKFKSKATLTVDKSSSTAYMQLSSLTSEDSAIYYCARRNNYYASSPFAYWGQGTLVSVSA VL: DIVMTQTPASLSASVGETVTITCRASGNIHNYLAWYQQKQGKSPQLLVYNAKTLADGVPSRFSGSGSGTQYSLKINSLQPEDFGSYYCQHFWSTPFTFGSGTKLEIK
6.7e+09 | 0.149 | 0.000106 | 708000 |  |  |  |  | anti-CD30 mAb 13H1 (antibody, V domains shown, also called clone 13H1; source: mouse hybridoma (custom generated by Genscript), serum-free supernatant, purified (rProtein A GraviTrap)) VH: QVQLQQSGTELVKPGASVKLSCKASGHTFTSYWMHWVKQRPGQGLEWIGNINPSNGGTNYNEKFKSKATLTVDKSSSTAYMQLSSLTSEDSAVYYCARRGYYGSSSYWSFDVWGTGTTVTVSS VL: DIVMTQTPKSMSMSVGERVTLSCKASENVGTYVSWYQQKPEQSPKVLIYGASNRFTGVPDRFTGSGSATDFTLTISSVQTEDLADYHCGQSYSYPLTFGAGTKLELK
